# Assay results published in patent US20180353525A1.
# Molecular target: receptor for activated C kinase (RACK1), endogenous, HT-1080 cells (human) (UniProt P63244)
# Test: cell-based or functional assay
# Sequence of NHE6^527-588 peptide (pcDNA3-HA/NHE6^527-588) (Q92581 559-620): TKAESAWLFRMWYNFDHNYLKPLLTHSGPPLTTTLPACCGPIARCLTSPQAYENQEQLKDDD
substance,measurement,value
NHE6^527-588 peptide (pcDNA3-HA/NHE6^527-588),Fold (doxorubicin IC50 at 1% O2 against 21% O2),1.6 fold
same,"IC50 of doxorubicin, HT-1080 overexpressing the peptide, MTT viability, 1% O2",224 nM
same,"IC50 of doxorubicin, HT-1080 overexpressing the peptide, MTT viability, 21% O2",137 nM
same,increase in drug sensitivity to Dox in cells exposed to hypoxia,2.8 fold
